Measurements reported in IntAct's records for PubMed 22820947.

B1: ATP-dependent helicase SGS1 (Saccharomyces cerevisiae), P35187 (parent)
chain: MVTKPSHNLRREHKWLKETATLQEDKDFVFQAIQKHIANKRPKTNSPPTTPSKDECGPGTTNFITSIPASGPTNTATKQHEVMQTLSNDTEWLSYTATSNQYADVPMVDIPASTSVVSNPRTPNGSKTHNFNTFRPHMASSLVENDSSRNLGSRNNNKSVIDNSSIGKQLENDIKLEVIRLQGSLIMALKEQSKLLLQKCSIIESTSLSEDAKRLQLSRDIRPQLSNMSIRIDSLEKEIIKAKKDGMSKDQSKGRSQVSSQDDNIISSILPSPLEYNTSSRNSNLTSTTATTVTKALAITGAKQNITNNTGKNSNNDSNNDDLIQVLDDEDDIDCDPPVILKEGAPHSPAFPHLHMTSEEQDELTRRRNMRSREPVNYRIPDRDDPFDYVMGKSLRDDYPDVEREEDELTMEAEDDAHSSYMTTRDEEKEENELLNQSDFDFVVNDDLDPTQDTDYHDNMDVSANIQESSQEGDTRSTITLSQNKNVQVILSSPTAQSVPSNGQNQIGVEHIDLLEDDLEKDAILDDSMSFSFGRQHMPMSHSDLELIDSEKENEDFEEDNNNNGIEYLSDSDLERFDEERENRTQVADIQELDNDLKIITERKLTGDNEHPPPSWSPKIKREKSSVSQKDEEDDFDDDFSLSDIVSKSNLSSKTNGPTYPWSDEVLYRLHEVFKLPGFRPNQLEAVNATLQGKDVFVLMPTGGGKSLCYQLPAVVKSGKTHGTTIVISPLISLMQDQVEHLLNKNIKASMFSSRGTAEQRRQTFNLFINGLLDLVYISPEMISASEQCKRAISRLYADGKLARIVVDEAHCVSNWGHDFRPDYKELKFFKREYPDIPMIALTATASEQVRMDIIHNLELKEPVFLKQSFNRTNLYYEVNKKTKNTIFEICDAVKSRFKNQTGIIYCHSKKSCEQTSAQMQRNGIKCAYYHAGMEPDERLSVQKAWQADEIQVICATVAFGMGIDKPDVRFVYHFTVPRTLEGYYQETGRAGRDGNYSYCITYFSFRDIRTMQTMIQKDKNLDRENKEKHLNKLQQVMAYCDNVTDCRRKLVLSYFNEDFDSKLCHKNCDNCRNSANVINEERDVTEPAKKIVKLVESIQNERVTIIYCQDVFKGSRSSKIVQANHDTLEEHGIGKSMQKSEIERIFFHLITIRVLQEYSIMNNSGFASSYVKVGPNAKKLLTGKMEIKMQFTISAPNSRPSTSSSFQANEDNIPVIAQKSTTIGGNVAANPPRFISAKEHLRSYTYGGSTMGSSHPITLKNTSDLRSTQELNNLRMTYERLRELSLNLGNRMVPPVGNFMPDSILKKMAAILPMNDSAFATLGTVEDKYRRRFKYFKATIADLSKKRSSEDHEKYDTILNDEFVNRAAASSNGIAQSTGTKSKFFGANLNEAKENEQIINQIRQSQLPKNTTSSKSGTRSISKSSKKSANGRRGFRNYRGHYRGRK

Variants of: B1
Settings: with rad53_yeast RAD53, P22216
rad53_yeast RAD53, P22216, sequence (P22216 whole entry): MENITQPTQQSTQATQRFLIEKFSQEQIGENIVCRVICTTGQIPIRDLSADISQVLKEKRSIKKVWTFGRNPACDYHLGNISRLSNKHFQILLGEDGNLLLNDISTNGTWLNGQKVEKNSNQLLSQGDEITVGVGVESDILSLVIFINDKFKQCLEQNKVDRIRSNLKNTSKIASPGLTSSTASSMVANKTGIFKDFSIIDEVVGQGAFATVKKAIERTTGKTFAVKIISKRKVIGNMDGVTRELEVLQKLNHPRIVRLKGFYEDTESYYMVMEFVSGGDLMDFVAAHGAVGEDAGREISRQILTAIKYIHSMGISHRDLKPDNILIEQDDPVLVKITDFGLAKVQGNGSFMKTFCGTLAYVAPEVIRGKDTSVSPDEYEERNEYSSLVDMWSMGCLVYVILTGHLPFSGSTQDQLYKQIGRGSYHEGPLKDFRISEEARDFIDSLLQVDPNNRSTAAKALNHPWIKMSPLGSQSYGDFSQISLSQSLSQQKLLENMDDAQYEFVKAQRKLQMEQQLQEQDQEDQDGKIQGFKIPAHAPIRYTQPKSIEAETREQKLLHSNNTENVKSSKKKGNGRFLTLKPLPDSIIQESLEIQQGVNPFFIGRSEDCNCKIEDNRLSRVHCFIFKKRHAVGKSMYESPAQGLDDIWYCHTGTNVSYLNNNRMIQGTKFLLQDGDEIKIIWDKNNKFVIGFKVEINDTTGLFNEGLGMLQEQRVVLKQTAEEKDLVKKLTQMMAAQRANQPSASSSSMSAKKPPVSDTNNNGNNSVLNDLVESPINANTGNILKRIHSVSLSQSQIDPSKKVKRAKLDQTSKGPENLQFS

Effect of a mutation on the interaction, decreasing interaction:
T451A
T585A
S482A
S470A
